{"source": "patent US7732563B2", "about": "“Cloning, sequencing and expression of a gene encoding an eukaryotic amino acid racemase, and diagnostic, therapeutic, and vaccination applications of parasite and viral mitogens” (priority 1999, dated 2010)", "molecules": {"B1": {"name": "rTcPA45: recombinant T. cruzi polyclonal activator 45, B-cell mitogen and proline racemase, codons 30-423 with C-terminal 6×His tag, from E. coli (protein)", "chain": "RTGQEKLLFDQKYKIIKGEKKEKKKNQRANRREHQQKREIMRFKKSFTCIDMHTEGEAARIVTSGLPHIPGSNMAEKKAYLQENMDYLRRGIMLEPRGHDDMFGAFLFDPIEEGADLGMVFMDTGGYLNMCGHNSIAAVTAAVETGIVSVPAKATNVPVVLDTPAGLVRGTAHLQSGTESEVSNASIINVPSFLYQQDVVVVLPKPYGEVRVDIAFGGNFFAIVPAEQLGIDISVQNLSRLQEAGELLRTEINRSVKVQHPQLPHINTVDCVEIYGPPTNPEANYKNVVIFGNRQADRSPCGTGTSAKMATLYAKGQLRIGETFVYESILGSLFQGRVLGEERIPGVKVPVTKDAEEGMLVVTAEITGKAFIMGFNTMLFDPTDPFKNGFTLKQ", "modifications": "left off: small tags and cut ends"}}, "target": "T1, rTcPA45 proline racemase (Trypanosoma cruzi, UniProt Q4DA80)", "T1 construct": "made in house; host or cells: E. coli (pET28b(+))", "format": "biochemical", "description": "To investigate the genomic organization and transcription of the Tc45 gene, Southern and Northern blot analyses were done. FIG. 4 depicts the results of characterization of rTcPA45 activities. FIG. 4, part a, is an 8% SDS-PAGE gel of rTcPA45 (Coomasie blue staining). Part b depicts the proliferative activity of total splenocytes (5×10^4 cells/well) in the presence of increasing concentrations of rTcPA45 (μg/ml). […] Reaction conditions were: 0.2 M Na-acetate/25 mM β-mercaptoethanol buffer, pH6, rTcPA45 (3 μg/ml), 30 min incubation at 37° C. in 500 μl. The reaction was stopped by incubating for 10 min at 80° C. […] Reactions were carried out for 30 min at 37° C. and stopped for 5 min at 80° C. All reagents and inhibitors were purchased from Sigma. The shift in optical rotation was measured in a Polarimeter 241 MC (Perkin Elmer).\n3 μg of rTcPA45 was diluted in 500 μl of buffer (0.2M NaOAc, […] β-mercaptoethanol, pH6.0) containing different concentrations of the substrate (10-80 mM or L- or D-proline). (See FIG. 4c.) The reaction was incubated for 30-60 minutes at 37° C. in a water bath, followed by heat inactivation of the enzyme for 10 minutes at 80° C. Each sample is diluted to 1.5 ml with water and the mixture submitted to measurement of optical rotation using a polarimeter, at 365 nm. A sample without enzyme is used as a control. For optimal pH determination, buffer systems with NaOAc, phosphate, and Tris were used with pH ranging from 4.0-8.2. Curve of temperature was performed between 27° C. to 47° C.\nThe percent of racemization of different concentrations of L-proline, D-proline, L-hydroxy-proline and D-hydroxy-proline substrates was calculated by incubating a 500-μl mixture of 3 μg TcPA45 and 10-80 mM substrate in 0.2 M sodium acetate and 25 mM β-mercaptoethanol, pH 6, for 30 min at 37° C. The reaction was stopped by incubation for 10 min at 80° C. Water (1 ml) was then added, and the optical rotation was measured in polarimeter 241 MC (Perkin Elmer, Montignyle Bretonneux, France) at a wavelength of 365 nm, in a cell with a path length of 10 cm. The percent inhibition of racemization of 80 mM L-proline was determined in the presence of different concentrations of several specific and nonspecific inhibitors ranging in concentration from 6 mM to 100 mM. The percent racemization of 80 mM L-proline as a function of pH was determined using 0.2 M sodium acetate, potassium phosphate and Tris-HCl buffers containing 25 mM β-mercaptoethanol; reactions were incubated for 30 min at 37° C. as described above. All reagents and inhibitors were purchased from Sigma.", "key": {"[1]": {"conditions": "pH 6, 3 μg rTcPA45, 30 min at 37° C."}}}
{"molecule": "B1", "values": [{"measurement": "pH of maximal proline racemase activity", "setting": "80 mM L-proline, buffers pH 4.0-8.2", "value": 6}, {"measurement": "enzyme stability to heating", "setting": "10 min heating at 80° C.", "value": "inactivated"}, {"measurement": "racemisation of L- and D-proline substrates", "setting": "[1]", "value": "racemises"}, {"measurement": "racemisation of L- or D-hydroxy-proline and other natural L-amino acids", "setting": "[1]", "value": "not"}, {"measurement": "optimal temperature for enzymatic activity", "setting": "tested between 27° C. and 47° C.", "value": 37, "unit": "°C"}]}
